# Measurements: the Immune Epitope Database (IEDB)
# Experiments:
# Assay in all cases: IEDB peptide-MHC binding, purified MHC/competitive/radioactivity; ≥ and ≤ were set here for values at or beyond the usual limits of such assays
# Conditions in all cases: source organism: Bordetella pertussis
# HLA-B*44:03 = target: HLA-B*44:03
# HLA-A*02:01 = target: HLA-A*02:01
# HLA-B*35:01 = target: HLA-B*35:01
# HLA-B*53:01 = target: HLA-B*53:01
# HLA-B*57:01 = target: HLA-B*57:01
# HLA-B*07:02 = target: HLA-B*07:02
sequence,measurement,setting,value
AESNALSKR,IC50,HLA-B*44:03,44.2 µM
AGLAGPSAV,IC50,HLA-A*02:01,≥ 78.1 µM
DAKHDLTVT,IC50,HLA-B*35:01,69.9 µM
DENGKPQTY,IC50,HLA-B*44:03,11.5 µM
FAISAYALK,IC50,HLA-B*53:01,4.42 µM
FALYDGTYL,IC50,HLA-B*35:01,20.9 µM
GLDVQQGTV,IC50,HLA-A*02:01,60 µM
KAGTIAAPW,IC50,HLA-B*57:01,0.297 µM
KEDVDAAQI,IC50,HLA-B*44:03,34.2 µM
LAAVLVNPH,IC50,HLA-B*35:01,69.9 µM
QSIVEAPEL,IC50,HLA-A*02:01,46 µM
TGDGGGHTD,IC50,HLA-B*53:01,69.9 µM
TPLGSLFAI,IC50,HLA-B*35:01,1.34 µM
same,IC50,HLA-B*53:01,8.19 µM
YATNPQTQL,IC50,HLA-B*07:02,69.6 µM
YEYIWGLYP,IC50,HLA-B*44:03,8.39 µM
YEYSKGPKL,IC50,HLA-B*44:03,47.7 µM
